The text below walks through data of patent US20040005550A1, “Methods and compositions useful for targeting activated vitronectin receptor alphavbeta3” (The Scripps Research Institute, priority 1998, published 2004).

Assay [1] concerns the target T1, purified αvβ3 receptors from human placenta (human), P06756.
T1 chain 1: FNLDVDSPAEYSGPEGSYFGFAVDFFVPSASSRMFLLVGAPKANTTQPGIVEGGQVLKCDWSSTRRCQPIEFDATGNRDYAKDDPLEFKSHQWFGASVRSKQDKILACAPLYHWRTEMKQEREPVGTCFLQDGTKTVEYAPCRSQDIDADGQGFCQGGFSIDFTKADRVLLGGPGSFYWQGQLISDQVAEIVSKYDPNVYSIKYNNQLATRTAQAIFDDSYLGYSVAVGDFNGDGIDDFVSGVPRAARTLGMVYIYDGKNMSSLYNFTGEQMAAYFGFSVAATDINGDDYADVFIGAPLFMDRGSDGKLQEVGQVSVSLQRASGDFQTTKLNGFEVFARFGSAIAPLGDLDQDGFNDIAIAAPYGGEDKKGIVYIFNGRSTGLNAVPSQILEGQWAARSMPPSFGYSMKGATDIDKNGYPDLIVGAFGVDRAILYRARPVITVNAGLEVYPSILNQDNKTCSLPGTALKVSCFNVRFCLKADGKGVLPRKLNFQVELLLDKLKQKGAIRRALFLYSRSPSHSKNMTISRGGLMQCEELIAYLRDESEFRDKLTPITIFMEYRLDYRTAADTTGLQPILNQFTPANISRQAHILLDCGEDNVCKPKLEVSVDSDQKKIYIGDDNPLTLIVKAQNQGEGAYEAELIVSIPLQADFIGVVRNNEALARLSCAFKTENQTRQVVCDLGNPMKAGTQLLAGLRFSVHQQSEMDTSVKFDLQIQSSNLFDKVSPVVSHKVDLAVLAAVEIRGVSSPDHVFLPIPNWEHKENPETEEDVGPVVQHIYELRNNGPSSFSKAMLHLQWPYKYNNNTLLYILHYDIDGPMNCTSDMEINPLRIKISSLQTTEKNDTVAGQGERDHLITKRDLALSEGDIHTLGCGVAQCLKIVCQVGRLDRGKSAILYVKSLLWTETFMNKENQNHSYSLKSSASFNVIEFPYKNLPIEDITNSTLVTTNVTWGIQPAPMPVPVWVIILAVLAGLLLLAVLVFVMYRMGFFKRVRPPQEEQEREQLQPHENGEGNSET
T1 chain 2: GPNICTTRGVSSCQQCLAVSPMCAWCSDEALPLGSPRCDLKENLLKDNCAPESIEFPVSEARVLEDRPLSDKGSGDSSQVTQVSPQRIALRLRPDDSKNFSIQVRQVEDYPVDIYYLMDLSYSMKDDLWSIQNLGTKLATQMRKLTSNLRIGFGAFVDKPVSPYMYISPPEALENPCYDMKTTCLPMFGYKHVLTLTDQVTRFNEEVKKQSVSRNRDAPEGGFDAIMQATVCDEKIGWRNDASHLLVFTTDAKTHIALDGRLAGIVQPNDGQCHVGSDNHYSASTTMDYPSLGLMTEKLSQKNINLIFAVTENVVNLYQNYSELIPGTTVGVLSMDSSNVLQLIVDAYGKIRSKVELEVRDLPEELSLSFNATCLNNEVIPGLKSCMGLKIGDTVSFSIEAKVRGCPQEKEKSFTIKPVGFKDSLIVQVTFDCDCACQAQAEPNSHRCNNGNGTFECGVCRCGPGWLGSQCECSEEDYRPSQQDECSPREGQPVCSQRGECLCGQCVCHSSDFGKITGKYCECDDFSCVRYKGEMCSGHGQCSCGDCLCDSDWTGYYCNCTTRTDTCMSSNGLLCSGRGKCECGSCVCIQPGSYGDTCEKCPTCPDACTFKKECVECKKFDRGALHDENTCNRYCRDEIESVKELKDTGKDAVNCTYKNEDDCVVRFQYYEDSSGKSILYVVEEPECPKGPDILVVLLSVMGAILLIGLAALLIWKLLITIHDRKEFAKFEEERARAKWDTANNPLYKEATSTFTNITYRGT
The assay is described as follows: ELISA on purified integrin; 2 mM RGDS against WOW-1 Fab. Background: An ELISA detects its analyte on a solid surface through an enzyme-linked reagent.

Assay [2] has as its target T2, human αvβ3 integrin on cells (human), P06756.
T2 chain 1: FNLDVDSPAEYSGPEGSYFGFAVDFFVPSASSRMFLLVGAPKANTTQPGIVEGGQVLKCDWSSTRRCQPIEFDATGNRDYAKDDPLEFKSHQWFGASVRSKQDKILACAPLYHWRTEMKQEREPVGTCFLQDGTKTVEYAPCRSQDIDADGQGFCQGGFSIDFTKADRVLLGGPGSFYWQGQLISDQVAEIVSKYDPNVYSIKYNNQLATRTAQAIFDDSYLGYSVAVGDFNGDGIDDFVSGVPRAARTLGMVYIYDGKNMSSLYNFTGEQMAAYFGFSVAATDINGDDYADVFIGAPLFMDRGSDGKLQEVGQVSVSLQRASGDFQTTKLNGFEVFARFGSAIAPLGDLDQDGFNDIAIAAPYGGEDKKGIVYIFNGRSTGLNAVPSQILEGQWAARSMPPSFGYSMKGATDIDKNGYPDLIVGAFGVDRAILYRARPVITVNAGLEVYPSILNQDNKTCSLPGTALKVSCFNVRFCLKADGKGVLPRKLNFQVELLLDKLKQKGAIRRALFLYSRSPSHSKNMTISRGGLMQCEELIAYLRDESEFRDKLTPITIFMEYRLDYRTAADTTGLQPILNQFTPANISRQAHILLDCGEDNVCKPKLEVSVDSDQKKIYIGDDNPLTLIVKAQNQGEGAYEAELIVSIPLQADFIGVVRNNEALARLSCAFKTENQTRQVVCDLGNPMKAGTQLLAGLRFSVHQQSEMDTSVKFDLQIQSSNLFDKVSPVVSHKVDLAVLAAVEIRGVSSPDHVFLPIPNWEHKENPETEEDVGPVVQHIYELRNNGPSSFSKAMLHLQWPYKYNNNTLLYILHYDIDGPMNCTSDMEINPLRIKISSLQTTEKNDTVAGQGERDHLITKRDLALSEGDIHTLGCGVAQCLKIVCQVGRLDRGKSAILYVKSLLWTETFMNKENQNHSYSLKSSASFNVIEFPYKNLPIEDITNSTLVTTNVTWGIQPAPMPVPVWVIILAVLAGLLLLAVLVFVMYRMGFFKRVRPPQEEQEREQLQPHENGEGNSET
T2 chain 2: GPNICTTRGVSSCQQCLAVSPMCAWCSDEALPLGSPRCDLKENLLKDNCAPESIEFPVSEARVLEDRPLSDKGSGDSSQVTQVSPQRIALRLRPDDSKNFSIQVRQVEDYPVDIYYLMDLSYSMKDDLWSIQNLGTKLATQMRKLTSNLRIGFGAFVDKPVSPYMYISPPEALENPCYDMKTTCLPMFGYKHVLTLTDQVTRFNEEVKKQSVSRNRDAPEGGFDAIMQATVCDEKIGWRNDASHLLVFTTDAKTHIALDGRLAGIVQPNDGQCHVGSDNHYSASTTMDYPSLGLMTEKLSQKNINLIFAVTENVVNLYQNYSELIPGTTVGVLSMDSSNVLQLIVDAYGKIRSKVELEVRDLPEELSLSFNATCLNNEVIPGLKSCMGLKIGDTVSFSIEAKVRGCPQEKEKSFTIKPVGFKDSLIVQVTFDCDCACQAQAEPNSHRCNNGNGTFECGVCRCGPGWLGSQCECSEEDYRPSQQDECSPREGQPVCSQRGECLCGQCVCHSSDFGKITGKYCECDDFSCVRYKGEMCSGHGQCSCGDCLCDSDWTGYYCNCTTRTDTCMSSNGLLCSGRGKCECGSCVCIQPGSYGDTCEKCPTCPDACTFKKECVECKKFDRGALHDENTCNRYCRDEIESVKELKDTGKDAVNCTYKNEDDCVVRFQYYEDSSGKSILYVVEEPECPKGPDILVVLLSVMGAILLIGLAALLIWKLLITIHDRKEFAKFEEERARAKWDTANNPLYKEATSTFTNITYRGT
As to the kind of experiment: flow cytometry, AP5-treated αvβ3-CHO cells; 2 mM RGDS against aPB. In general terms: Flow cytometry measures light scatter and fluorescence of single cells or particles in a stream.

Assay [3] deals with T2, human αvβ3 integrin on cells (human), …. As to the kind of experiment: flow cytometry, AP5-treated αvβ3-CHO cells; 2 mM RGDS against WOW-1 Fab.

For the molecule RGDS (modifications not checked), the figures for the percent inhibition of WOW-1 Fab binding in assay [1] and in assay [3] were greater than 95% and greater than 85%, respectively. This molecule also yielded a percent inhibition of aPB binding in assay [2] greater than 85%.
